{"source": "the RNAGym collection of RNA variant scans (doi:10.7554/elife.80360)", "parents": {"B1": {"name": "Hairpin Ribozyme (parent)", "chain": "GUCCUCUUUCACGUGCGCGUGAAAGAGAGAAGUGAACCAGAGAAACACACGUUGUGGUAUAUUACCUGGUA"}}}
{"variants_of": "B1", "assay": "self-cleavage, relative activity (ratio to wild type); higher = more cleavage; co-transcriptional"}
{"variant": "C38A U53G", "self-cleavage": 0.0628}
{"variant": "A39C A41C", "self-cleavage": 0.349}
{"variant": "C38G U55C", "self-cleavage": 0.0193}
{"variant": "C37G U63A", "self-cleavage": 0.172}
{"variant": "C37G U63G", "self-cleavage": 0.129}
{"variant": "C37U U53A", "self-cleavage": 0.775}
{"variant": "C37U U53G", "self-cleavage": 0.364}
{"variant": "A39C G51U", "self-cleavage": 0.64}
{"variant": "C38G A43C", "self-cleavage": 0.198}
{"variant": "A39G A43C", "self-cleavage": 0.137}
{"variant": "A36U G68U", "self-cleavage": 0.118}
{"variant": "C37U U52G", "self-cleavage": 0.527}
{"variant": "C37U U52C", "self-cleavage": 0.651}
{"variant": "C37A U62C", "self-cleavage": 0.196}
{"variant": "C38A G51A", "self-cleavage": 0.349}
{"variant": "C38G G56A", "self-cleavage": 0.134}
{"variant": "C38G G56U", "self-cleavage": 0.0935}
{"variant": "C38A U58G", "self-cleavage": 0.204}
{"variant": "C37U C66A", "self-cleavage": 0.0721}
{"variant": "C37U C66G", "self-cleavage": 0.195}
{"variant": "A36G A49G", "self-cleavage": 0.339}
{"variant": "C37A G69C", "self-cleavage": 0.467}
{"variant": "C37A U60G", "self-cleavage": 0.171}
{"variant": "C38U C48A", "self-cleavage": 0.142}
{"variant": "C38G C46G", "self-cleavage": 0.161}
{"variant": "C38U A47G", "self-cleavage": 0.163}
{"variant": "C38U A47C", "self-cleavage": 0.276}
{"variant": "C38A U67C", "self-cleavage": 0.0697}
{"variant": "A36G G68A", "self-cleavage": 0.306}
{"variant": "A36G G68U", "self-cleavage": 0.237}
{"variant": "A36U G69U", "self-cleavage": 0.228}
{"variant": "A36U G69A", "self-cleavage": 0.173}
{"variant": "A36U G69C", "self-cleavage": 0.127}
{"variant": "C37G A59G", "self-cleavage": 0.0514}
{"variant": "C37G A59C", "self-cleavage": 0.0453}
{"variant": "C37G C66U", "self-cleavage": 0.286}
{"variant": "A39C U62A", "self-cleavage": 0.159}
{"variant": "A39C U62G", "self-cleavage": 0.108}
{"variant": "C37A U58G", "self-cleavage": 0.269}
{"variant": "C37A U58C", "self-cleavage": 0.349}
{"variant": "C37U G69C", "self-cleavage": 0.364}
{"variant": "A39C A71C", "self-cleavage": 0.88}
{"variant": "C38G C65G", "self-cleavage": 0.0624}
{"variant": "A36G G40C", "self-cleavage": 0.122}
{"variant": "C37U C48U", "self-cleavage": 0.144}
{"variant": "C38U A39C", "self-cleavage": 0.152}
{"variant": "C37U A41C", "self-cleavage": 0.567}
{"variant": "A36G G42C", "self-cleavage": 0.347}
{"variant": "A39G C48G", "self-cleavage": 0.0932}
{"variant": "C37A A64U", "self-cleavage": 0.392}
{"variant": "C37U A47C", "self-cleavage": 0.16}
{"variant": "C38U U58A", "self-cleavage": 0.333}
{"variant": "A36U C48U", "self-cleavage": 0.0683}
{"variant": "C37G A61U", "self-cleavage": 0.155}
{"variant": "A36U A49G", "self-cleavage": 0.281}
{"variant": "C37U A44G", "self-cleavage": 0.112}
{"variant": "A36G C46G", "self-cleavage": 0.178}
{"variant": "C37G A41G", "self-cleavage": 0.369}
{"variant": "C37G A41C", "self-cleavage": 0.282}
{"variant": "C38U U55G", "self-cleavage": 0.137}
{"variant": "A36G C37A", "self-cleavage": 0.297}
{"variant": "A36U G51C", "self-cleavage": 0.446}
{"variant": "C38U C46G", "self-cleavage": 0.123}
{"variant": "A39C G69A", "self-cleavage": 0.168}
{"variant": "A36G", "self-cleavage": 1.03}
{"variant": "A36U", "self-cleavage": 0.602}
{"variant": "C37A G51U", "self-cleavage": 0.563}
{"variant": "C37G C38G", "self-cleavage": 0.0384}
{"variant": "C37G C38A", "self-cleavage": 0.152}
{"variant": "A39C U58C", "self-cleavage": 0.568}
{"variant": "C38A A41C", "self-cleavage": 0.183}
{"variant": "C38A A41U", "self-cleavage": 0.286}
{"variant": "C38A U52G", "self-cleavage": 0.0831}
{"variant": "C38A U52C", "self-cleavage": 0.193}
{"variant": "C38A U52A", "self-cleavage": 0.41}
{"variant": "A39C G54C", "self-cleavage": 0.213}
{"variant": "C37G A45U", "self-cleavage": 0.188}
{"variant": "C37G A45G", "self-cleavage": 0.103}
{"variant": "C37A C46U", "self-cleavage": 0.0922}
{"variant": "C37G C48G", "self-cleavage": 0.0962}
{"variant": "A36U A64C", "self-cleavage": 0.0976}
{"variant": "A36U A64G", "self-cleavage": 0.219}
{"variant": "C38A G69A", "self-cleavage": 0.146}
{"variant": "C38G G68A", "self-cleavage": 0.247}
{"variant": "C38G A64C", "self-cleavage": 0.0814}
{"variant": "C38G A64G", "self-cleavage": 0.118}
{"variant": "C38G C66G", "self-cleavage": 0.0755}
{"variant": "C38G C66U", "self-cleavage": 0.21}
{"variant": "C38G C66A", "self-cleavage": 0.151}
{"variant": "A36G C66G", "self-cleavage": 0.288}
{"variant": "A36U U53C", "self-cleavage": 0.593}
{"variant": "A36U A59G", "self-cleavage": 0.19}
{"variant": "A36G U67G", "self-cleavage": 0.19}
{"variant": "A36C U58G", "self-cleavage": 0.595}
{"variant": "C37A C65G", "self-cleavage": 0.124}
{"variant": "C37A G57U", "self-cleavage": 0.142}
{"variant": "C37A G57A", "self-cleavage": 0.145}
{"variant": "C38U U53C", "self-cleavage": 0.823}
{"variant": "C38U U53G", "self-cleavage": 0.431}
{"variant": "C38U U53A", "self-cleavage": 0.731}
{"variant": "A39C U63C", "self-cleavage": 0.122}
{"variant": "C37G C46G", "self-cleavage": 0.211}
{"variant": "C37G C46U", "self-cleavage": 0.122}
{"variant": "C37G C46A", "self-cleavage": 0.174}
{"variant": "C38U G56C", "self-cleavage": 0.171}
{"variant": "C37G G54A", "self-cleavage": 0.173}
{"variant": "C38A A71C", "self-cleavage": 0.228}
{"variant": "C38A A43G", "self-cleavage": 0.0867}
{"variant": "C38A A43C", "self-cleavage": 0.0755}
{"variant": "C38U U63G", "self-cleavage": 0.186}
{"variant": "C38U U63C", "self-cleavage": 0.128}
{"variant": "C38A G56C", "self-cleavage": 0.136}
{"variant": "C38A G56A", "self-cleavage": 0.178}
{"variant": "A36C U52G", "self-cleavage": 0.558}
{"variant": "C38G", "self-cleavage": 0.181}
{"variant": "C38U", "self-cleavage": 0.497}
{"variant": "C38A", "self-cleavage": 0.171}
{"variant": "A36G A64G", "self-cleavage": 0.492}
{"variant": "A36G A64U", "self-cleavage": 0.138}
{"variant": "C37G U62C", "self-cleavage": 0.152}
{"variant": "A36U A41U", "self-cleavage": 0.868}
{"variant": "C37A A71G", "self-cleavage": 0.323}
{"variant": "C38U G40C", "self-cleavage": 0.118}
{"variant": "C38U A59C", "self-cleavage": 0.228}
{"variant": "C37G G69U", "self-cleavage": 0.644}
{"variant": "A36C U55C", "self-cleavage": 0.0703}
{"variant": "C37G U53C", "self-cleavage": 0.586}
{"variant": "C37G U53G", "self-cleavage": 0.238}
{"variant": "C38A U60C", "self-cleavage": 0.251}
{"variant": "C38A U70A", "self-cleavage": 0.165}
{"variant": "C38G U53A", "self-cleavage": 0.185}
{"variant": "C38A A47G", "self-cleavage": 0.106}
{"variant": "A39C G42A", "self-cleavage": 0.191}
{"variant": "A39C G42C", "self-cleavage": 0.169}
{"variant": "C37U G57C", "self-cleavage": 0.156}
{"variant": "C37U G57U", "self-cleavage": 0.221}
{"variant": "A36U A71G", "self-cleavage": 0.829}
{"variant": "A36U A71U", "self-cleavage": 0.524}
{"variant": "C38A A39U", "self-cleavage": 0.206}
{"variant": "C38A C46A", "self-cleavage": 0.0508}
{"variant": "C37A G40U", "self-cleavage": 0.129}
{"variant": "C37A G40A", "self-cleavage": 0.174}
{"variant": "C37A G40C", "self-cleavage": 0.158}
{"variant": "C37U C65G", "self-cleavage": 0.163}
{"variant": "C37U C65U", "self-cleavage": 0.316}
{"variant": "C38A A45U", "self-cleavage": 0.143}
{"variant": "C38A A45G", "self-cleavage": 0.104}
{"variant": "C37A A39C", "self-cleavage": 0.128}
{"variant": "A36G G54C", "self-cleavage": 0.544}
{"variant": "A36G G54A", "self-cleavage": 0.715}
{"variant": "A39G A61U", "self-cleavage": 0.152}
{"variant": "C37A C48U", "self-cleavage": 0.0819}
{"variant": "C37A C48G", "self-cleavage": 0.143}
{"variant": "A36U C37A", "self-cleavage": 0.184}
{"variant": "A36U C37U", "self-cleavage": 0.21}
{"variant": "C37A A49U", "self-cleavage": 0.0951}
{"variant": "C38U U70G", "self-cleavage": 0.39}
{"variant": "A36G C50A", "self-cleavage": 0.34}
{"variant": "C37U A64U", "self-cleavage": 0.242}
{"variant": "C37U A64G", "self-cleavage": 0.456}
{"variant": "C37U G40C", "self-cleavage": 0.172}
{"variant": "A36U A44U", "self-cleavage": 0.285}
{"variant": "A39C G68C", "self-cleavage": 0.191}
{"variant": "C37G A49U", "self-cleavage": 0.153}
{"variant": "C38A U63C", "self-cleavage": 0.0636}
{"variant": "A36G U63A", "self-cleavage": 0.23}
{"variant": "A36G U63C", "self-cleavage": 0.201}
